The target in assay [1] is T1, human calcitonin receptor on BHK570/CRE-luc cells (human, UniProt P30988 25-474).
T1 sequence (looked up): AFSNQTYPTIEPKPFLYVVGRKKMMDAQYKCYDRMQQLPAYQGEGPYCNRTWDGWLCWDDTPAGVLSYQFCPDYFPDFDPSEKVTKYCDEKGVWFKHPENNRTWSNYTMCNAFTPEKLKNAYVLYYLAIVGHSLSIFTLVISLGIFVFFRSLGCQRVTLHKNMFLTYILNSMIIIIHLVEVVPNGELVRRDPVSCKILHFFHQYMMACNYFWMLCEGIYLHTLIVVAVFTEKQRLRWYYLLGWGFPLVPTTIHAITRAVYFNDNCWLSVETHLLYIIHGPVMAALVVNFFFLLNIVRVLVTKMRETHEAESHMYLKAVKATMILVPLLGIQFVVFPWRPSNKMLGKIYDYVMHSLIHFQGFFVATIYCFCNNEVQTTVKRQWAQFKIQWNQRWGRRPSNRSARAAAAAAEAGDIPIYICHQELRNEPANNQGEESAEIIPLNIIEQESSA
The experiment in a line: cell-based or functional assay.

The target in assay [2] is T2, human amylin 3(a) receptor (human calcitonin receptor co-expressed with RAMP-3) on BHK570/CRE-luc cells (human, UniProt P30988 25-474; O60896 24-148).
T2 sequence (looked up) 1: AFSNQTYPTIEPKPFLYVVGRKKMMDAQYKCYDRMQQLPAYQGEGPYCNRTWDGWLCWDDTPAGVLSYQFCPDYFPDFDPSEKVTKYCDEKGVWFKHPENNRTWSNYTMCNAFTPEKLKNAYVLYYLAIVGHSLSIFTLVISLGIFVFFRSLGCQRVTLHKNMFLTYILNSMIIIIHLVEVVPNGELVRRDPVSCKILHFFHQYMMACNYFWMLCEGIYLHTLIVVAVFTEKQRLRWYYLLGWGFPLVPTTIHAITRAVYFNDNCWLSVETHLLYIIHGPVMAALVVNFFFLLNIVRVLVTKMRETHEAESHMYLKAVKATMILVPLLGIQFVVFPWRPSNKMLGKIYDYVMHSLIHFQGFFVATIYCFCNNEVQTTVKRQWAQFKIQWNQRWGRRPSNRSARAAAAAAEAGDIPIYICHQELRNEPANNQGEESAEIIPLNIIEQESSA
T2 sequence (looked up) 2: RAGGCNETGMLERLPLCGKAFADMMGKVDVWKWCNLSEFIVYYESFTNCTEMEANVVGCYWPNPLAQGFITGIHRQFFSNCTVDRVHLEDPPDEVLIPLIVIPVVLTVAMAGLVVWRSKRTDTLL
The experiment in a line: cell-based or functional assay.

Numbered stars: 1 amine (or outer) side, 2 acyl side, 3 side chain; on linkers, the order of the positions; unused ones are H or OH. * marks the point of attachment. C20 diacid = O=C(O)CCCCCCCCCCCCCCCCCCC(=O)*; γGlu = O=C(O)[C@H](CCC(=O)[*:2])N[*:1]

B1: [N-terminal(C20 diacid-gGlu), des1, 4G, 9V, 15Q, 21Q, 23Y, 30S, 31Q, 32T, 33Y]mimylin (peptide)
peptide: {C20 diacid-γGlu}-ASGLSTAVLGRLSQELHELQTYPRTETGSQTY-NH2
SMILES: CC(C)C[C@H](NC(=O)CNC(=O)[C@H](CO)NC(=O)[C@H](C)NC(=O)CC[C@H](NC(=O)CCCCCCCCCCCCCCCCCCC(=O)O)C(=O)O)C(=O)N[C@@H](CO)C(=O)N[C@H](C(=O)N[C@@H](C)C(=O)N[C@H](C(=O)N[C@@H](CC(C)C)C(=O)NCC(=O)N[C@@H](CCCNC(=N)N)C(=O)N[C@@H](CC(C)C)C(=O)N[C@@H](CO)C(=O)N[C@@H](CCC(N)=O)C(=O)N[C@@H](CCC(=O)O)C(=O)N[C@@H](CC(C)C)C(=O)N[C@@H](Cc1c[nH]cn1)C(=O)N[C@@H](CCC(=O)O)C(=O)N[C@@H](CC(C)C)C(=O)N[C@@H](CCC(N)=O)C(=O)N[C@H](C(=O)N[C@@H](Cc1ccc(O)cc1)C(=O)N1CCC[C@H]1C(=O)N[C@@H](CCCNC(=N)N)C(=O)N[C@H](C(=O)N[C@@H](CCC(=O)O)C(=O)N[C@H](C(=O)NCC(=O)N[C@@H](CO)C(=O)N[C@@H](CCC(N)=O)C(=O)N[C@H](C(=O)N[C@@H](Cc1ccc(O)cc1)C(N)=O)[C@@H](C)O)[C@@H](C)O)[C@@H](C)O)[C@@H](C)O)C(C)C)[C@@H](C)O
In the case of B1, the “hCTR funct. EC50 (pM), tested with HSA” value in assay [1] stood at 61 pM. In addition, in assay [2], the “hAmylin-R funct. EC50 (pM), tested with HSA” value (from here on “hAmylin-R funct. EC50 (pM)”) is 86 pM.

B2: [N-terminal(C20 diacid-gGlu), des1, 4G, 9V, 15Q, 21Q, 23Y, 30S, 31A, 32T, 33Y]mimylin (peptide)
peptide: {C20 diacid-γGlu}-ASGLSTAVLGRLSQELHELQTYPRTETGSATY-NH2
SMILES: CC(C)C[C@H](NC(=O)CNC(=O)[C@H](CO)NC(=O)[C@H](C)NC(=O)CC[C@H](NC(=O)CCCCCCCCCCCCCCCCCCC(=O)O)C(=O)O)C(=O)N[C@@H](CO)C(=O)N[C@H](C(=O)N[C@@H](C)C(=O)N[C@H](C(=O)N[C@@H](CC(C)C)C(=O)NCC(=O)N[C@@H](CCCNC(=N)N)C(=O)N[C@@H](CC(C)C)C(=O)N[C@@H](CO)C(=O)N[C@@H](CCC(N)=O)C(=O)N[C@@H](CCC(=O)O)C(=O)N[C@@H](CC(C)C)C(=O)N[C@@H](Cc1c[nH]cn1)C(=O)N[C@@H](CCC(=O)O)C(=O)N[C@@H](CC(C)C)C(=O)N[C@@H](CCC(N)=O)C(=O)N[C@H](C(=O)N[C@@H](Cc1ccc(O)cc1)C(=O)N1CCC[C@H]1C(=O)N[C@@H](CCCNC(=N)N)C(=O)N[C@H](C(=O)N[C@@H](CCC(=O)O)C(=O)N[C@H](C(=O)NCC(=O)N[C@@H](CO)C(=O)N[C@@H](C)C(=O)N[C@H](C(=O)N[C@@H](Cc1ccc(O)cc1)C(N)=O)[C@@H](C)O)[C@@H](C)O)[C@@H](C)O)[C@@H](C)O)C(C)C)[C@@H](C)O
Consider B2, for which the “hCTR funct. EC50 (pM), tested with HSA” value in assay [1] was 37 pM. Besides, the “hAmylin-R funct. EC50 (pM)” value in assay [2] came out at 77 pM.

B3: [N-terminal(C20 diacid-gGlu), des1, 2L, 4G, 9V, 21S, 23Y, 30S, 31G, 32T, 33Y]mimylin (peptide)
peptide: {C20 diacid-γGlu}-LSGLSTAVLGRLSAELHELSTYPRTETGSGTY-NH2
SMILES: CC(C)C[C@H](NC(=O)CC[C@H](NC(=O)CCCCCCCCCCCCCCCCCCC(=O)O)C(=O)O)C(=O)N[C@@H](CO)C(=O)NCC(=O)N[C@@H](CC(C)C)C(=O)N[C@@H](CO)C(=O)N[C@H](C(=O)N[C@@H](C)C(=O)N[C@H](C(=O)N[C@@H](CC(C)C)C(=O)NCC(=O)N[C@@H](CCCNC(=N)N)C(=O)N[C@@H](CC(C)C)C(=O)N[C@@H](CO)C(=O)N[C@@H](C)C(=O)N[C@@H](CCC(=O)O)C(=O)N[C@@H](CC(C)C)C(=O)N[C@@H](Cc1c[nH]cn1)C(=O)N[C@@H](CCC(=O)O)C(=O)N[C@@H](CC(C)C)C(=O)N[C@@H](CO)C(=O)N[C@H](C(=O)N[C@@H](Cc1ccc(O)cc1)C(=O)N1CCC[C@H]1C(=O)N[C@@H](CCCNC(=N)N)C(=O)N[C@H](C(=O)N[C@@H](CCC(=O)O)C(=O)N[C@H](C(=O)NCC(=O)N[C@@H](CO)C(=O)NCC(=O)N[C@H](C(=O)N[C@@H](Cc1ccc(O)cc1)C(N)=O)[C@@H](C)O)[C@@H](C)O)[C@@H](C)O)[C@@H](C)O)C(C)C)[C@@H](C)O
On to B3, for which the “hCTR funct. EC50 (pM), tested with HSA” value in assay [1] came out at 34 pM. The “hAmylin-R funct. EC50 (pM)” value in assay [2] is 64 pM.

B4: [N-terminal(C20 diacid-gGlu), des1, 4G, 15Q, 21Q, 23Y, 25H, 30S, 31G, 32T, 33Y]mimylin (peptide)
peptide: {C20 diacid-γGlu}-ASGLSTAALGRLSQELHELQTYPHTETGSGTY-NH2
SMILES: CC(C)C[C@H](NC(=O)CNC(=O)[C@H](CO)NC(=O)[C@H](C)NC(=O)CC[C@H](NC(=O)CCCCCCCCCCCCCCCCCCC(=O)O)C(=O)O)C(=O)N[C@@H](CO)C(=O)N[C@H](C(=O)N[C@@H](C)C(=O)N[C@@H](C)C(=O)N[C@@H](CC(C)C)C(=O)NCC(=O)N[C@@H](CCCNC(=N)N)C(=O)N[C@@H](CC(C)C)C(=O)N[C@@H](CO)C(=O)N[C@@H](CCC(N)=O)C(=O)N[C@@H](CCC(=O)O)C(=O)N[C@@H](CC(C)C)C(=O)N[C@@H](Cc1c[nH]cn1)C(=O)N[C@@H](CCC(=O)O)C(=O)N[C@@H](CC(C)C)C(=O)N[C@@H](CCC(N)=O)C(=O)N[C@H](C(=O)N[C@@H](Cc1ccc(O)cc1)C(=O)N1CCC[C@H]1C(=O)N[C@@H](Cc1c[nH]cn1)C(=O)N[C@H](C(=O)N[C@@H](CCC(=O)O)C(=O)N[C@H](C(=O)NCC(=O)N[C@@H](CO)C(=O)NCC(=O)N[C@H](C(=O)N[C@@H](Cc1ccc(O)cc1)C(N)=O)[C@@H](C)O)[C@@H](C)O)[C@@H](C)O)[C@@H](C)O)[C@@H](C)O
On to B4, for which, in assay [1], the “hCTR funct. EC50 (pM), tested with HSA” value amounted to 99 pM. In addition, in assay [2], the “hAmylin-R funct. EC50 (pM)” value came out at 212 pM.

The values are drawn from patent publication US20160272683A1 (Novo Nordisk, published 2016).
